Tests used:
scrib_human SCRIB [1] = biological target: scrib_human SCRIB (UniProt Q14160)
scrib_human SCRIB [2] = biological target: scrib_human SCRIB (UniProt Q14160); remark: listed apart in the source
dlg1_human DLG1 = dlg1_human DLG1 (UniProt Q12959)
ks6a2_human RPS6KA2 [3] = biological target: ks6a2_human RPS6KA2 (UniProt Q15349)
crcm_human MCC [4] = biological target: crcm_human MCC (UniProt P23508)
crcm_human MCC [5] = biological target: crcm_human MCC (UniProt P23508); remark: listed apart in the source
ks6a2_human RPS6KA2 [6] = biological target: ks6a2_human RPS6KA2 (UniProt Q15349); remark: listed apart in the source
scrib_human SCRIB [7] = biological target: scrib_human SCRIB (UniProt Q14160); remark: listed apart in the source

Chain of ks6a2_human RPS6KA2 (Q15349 whole entry): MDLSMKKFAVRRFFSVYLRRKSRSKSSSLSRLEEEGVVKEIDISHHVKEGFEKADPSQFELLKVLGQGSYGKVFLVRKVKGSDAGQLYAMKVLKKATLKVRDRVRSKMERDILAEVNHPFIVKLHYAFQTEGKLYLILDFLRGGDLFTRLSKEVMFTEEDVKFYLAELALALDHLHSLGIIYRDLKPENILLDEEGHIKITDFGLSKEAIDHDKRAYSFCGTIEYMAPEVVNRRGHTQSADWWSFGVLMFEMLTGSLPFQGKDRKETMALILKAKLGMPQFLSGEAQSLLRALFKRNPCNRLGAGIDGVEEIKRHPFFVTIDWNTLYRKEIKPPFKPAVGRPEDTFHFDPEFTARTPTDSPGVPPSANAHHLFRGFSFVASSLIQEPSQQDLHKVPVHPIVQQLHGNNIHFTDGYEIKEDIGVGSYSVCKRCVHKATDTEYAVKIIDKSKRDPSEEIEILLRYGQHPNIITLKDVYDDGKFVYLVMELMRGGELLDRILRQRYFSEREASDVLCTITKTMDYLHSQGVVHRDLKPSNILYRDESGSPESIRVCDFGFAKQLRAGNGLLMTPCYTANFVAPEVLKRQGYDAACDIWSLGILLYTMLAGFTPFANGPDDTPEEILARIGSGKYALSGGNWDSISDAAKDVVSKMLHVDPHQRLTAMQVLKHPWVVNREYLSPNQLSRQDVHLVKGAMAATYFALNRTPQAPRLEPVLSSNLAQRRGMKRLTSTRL
Chain of scrib_human SCRIB (Q14160 whole entry): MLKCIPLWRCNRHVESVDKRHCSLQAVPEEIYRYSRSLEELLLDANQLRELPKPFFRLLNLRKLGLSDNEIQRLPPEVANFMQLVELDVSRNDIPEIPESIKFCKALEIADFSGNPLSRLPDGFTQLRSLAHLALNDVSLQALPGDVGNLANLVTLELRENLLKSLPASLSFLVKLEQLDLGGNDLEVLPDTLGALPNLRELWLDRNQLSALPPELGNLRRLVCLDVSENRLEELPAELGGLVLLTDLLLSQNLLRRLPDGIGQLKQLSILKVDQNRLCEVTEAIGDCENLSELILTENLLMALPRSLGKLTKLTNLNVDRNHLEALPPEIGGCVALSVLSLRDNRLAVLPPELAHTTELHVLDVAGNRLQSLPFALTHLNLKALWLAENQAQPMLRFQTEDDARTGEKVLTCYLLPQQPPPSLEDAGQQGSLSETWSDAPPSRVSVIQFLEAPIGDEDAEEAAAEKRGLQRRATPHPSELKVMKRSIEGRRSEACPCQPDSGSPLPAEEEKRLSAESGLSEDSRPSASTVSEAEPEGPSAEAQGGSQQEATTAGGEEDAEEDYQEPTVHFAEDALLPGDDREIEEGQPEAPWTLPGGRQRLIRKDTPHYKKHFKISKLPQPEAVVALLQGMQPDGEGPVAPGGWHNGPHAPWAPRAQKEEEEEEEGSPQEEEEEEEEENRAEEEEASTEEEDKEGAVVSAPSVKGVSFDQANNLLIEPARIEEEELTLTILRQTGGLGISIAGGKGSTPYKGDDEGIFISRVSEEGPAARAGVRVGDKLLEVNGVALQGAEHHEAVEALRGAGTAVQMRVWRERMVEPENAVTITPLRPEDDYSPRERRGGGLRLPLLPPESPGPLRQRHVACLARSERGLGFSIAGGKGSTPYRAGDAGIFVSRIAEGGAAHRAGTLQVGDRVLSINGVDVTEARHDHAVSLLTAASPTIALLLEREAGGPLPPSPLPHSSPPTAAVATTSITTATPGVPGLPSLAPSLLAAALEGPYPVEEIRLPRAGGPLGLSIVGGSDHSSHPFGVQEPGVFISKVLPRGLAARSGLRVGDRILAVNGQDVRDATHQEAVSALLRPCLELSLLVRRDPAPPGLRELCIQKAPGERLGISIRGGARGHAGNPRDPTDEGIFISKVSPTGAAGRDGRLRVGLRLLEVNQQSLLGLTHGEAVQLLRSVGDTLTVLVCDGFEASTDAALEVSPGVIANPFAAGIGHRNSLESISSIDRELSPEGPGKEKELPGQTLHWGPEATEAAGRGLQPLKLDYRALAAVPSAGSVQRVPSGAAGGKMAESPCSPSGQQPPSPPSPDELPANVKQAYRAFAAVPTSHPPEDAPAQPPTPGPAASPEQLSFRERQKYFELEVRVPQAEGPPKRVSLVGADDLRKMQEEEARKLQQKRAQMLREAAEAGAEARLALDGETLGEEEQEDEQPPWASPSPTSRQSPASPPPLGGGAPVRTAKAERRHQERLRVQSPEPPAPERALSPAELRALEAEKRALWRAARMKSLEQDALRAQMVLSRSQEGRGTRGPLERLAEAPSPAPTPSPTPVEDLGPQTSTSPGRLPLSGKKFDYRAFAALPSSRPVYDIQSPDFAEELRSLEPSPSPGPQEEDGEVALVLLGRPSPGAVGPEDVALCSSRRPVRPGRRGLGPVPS
Chain of crcm_human MCC (P23508 whole entry): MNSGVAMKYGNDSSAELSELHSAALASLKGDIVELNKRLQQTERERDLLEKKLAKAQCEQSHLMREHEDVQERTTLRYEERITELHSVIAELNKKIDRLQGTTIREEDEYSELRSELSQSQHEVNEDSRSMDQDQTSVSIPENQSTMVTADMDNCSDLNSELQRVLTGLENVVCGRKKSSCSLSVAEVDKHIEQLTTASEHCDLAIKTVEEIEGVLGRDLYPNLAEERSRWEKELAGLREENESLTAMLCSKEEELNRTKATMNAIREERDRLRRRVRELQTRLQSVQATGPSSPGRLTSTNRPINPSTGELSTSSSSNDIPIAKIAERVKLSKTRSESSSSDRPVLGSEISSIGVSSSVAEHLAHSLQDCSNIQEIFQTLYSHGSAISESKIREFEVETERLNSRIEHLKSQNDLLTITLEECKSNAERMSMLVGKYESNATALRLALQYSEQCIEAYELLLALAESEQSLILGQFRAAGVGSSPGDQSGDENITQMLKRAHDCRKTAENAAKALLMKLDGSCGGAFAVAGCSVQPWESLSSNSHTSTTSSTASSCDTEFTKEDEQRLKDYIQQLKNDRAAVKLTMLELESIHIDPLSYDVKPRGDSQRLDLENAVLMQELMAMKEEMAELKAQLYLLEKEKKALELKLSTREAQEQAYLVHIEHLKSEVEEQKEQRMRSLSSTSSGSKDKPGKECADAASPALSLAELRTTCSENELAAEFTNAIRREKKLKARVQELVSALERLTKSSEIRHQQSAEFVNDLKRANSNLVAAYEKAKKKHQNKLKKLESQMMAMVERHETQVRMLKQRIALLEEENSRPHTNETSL
Chain of Wilms tumor protein 1-interacting protein (Homo sapiens), A6NIX2 S422E (A6NIX2 whole entry S422E): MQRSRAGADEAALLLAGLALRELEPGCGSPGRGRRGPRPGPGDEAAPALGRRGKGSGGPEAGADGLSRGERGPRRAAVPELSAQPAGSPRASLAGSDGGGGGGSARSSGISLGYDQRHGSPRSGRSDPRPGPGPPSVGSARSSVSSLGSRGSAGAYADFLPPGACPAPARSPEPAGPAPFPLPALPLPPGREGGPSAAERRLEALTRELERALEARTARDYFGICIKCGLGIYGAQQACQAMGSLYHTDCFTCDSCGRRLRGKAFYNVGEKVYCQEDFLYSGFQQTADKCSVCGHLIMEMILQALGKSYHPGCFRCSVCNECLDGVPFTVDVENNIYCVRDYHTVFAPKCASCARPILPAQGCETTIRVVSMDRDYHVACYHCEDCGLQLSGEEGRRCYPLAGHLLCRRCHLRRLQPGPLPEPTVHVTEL
Chain of dlg1_human DLG1 (Q12959 whole entry, looked up): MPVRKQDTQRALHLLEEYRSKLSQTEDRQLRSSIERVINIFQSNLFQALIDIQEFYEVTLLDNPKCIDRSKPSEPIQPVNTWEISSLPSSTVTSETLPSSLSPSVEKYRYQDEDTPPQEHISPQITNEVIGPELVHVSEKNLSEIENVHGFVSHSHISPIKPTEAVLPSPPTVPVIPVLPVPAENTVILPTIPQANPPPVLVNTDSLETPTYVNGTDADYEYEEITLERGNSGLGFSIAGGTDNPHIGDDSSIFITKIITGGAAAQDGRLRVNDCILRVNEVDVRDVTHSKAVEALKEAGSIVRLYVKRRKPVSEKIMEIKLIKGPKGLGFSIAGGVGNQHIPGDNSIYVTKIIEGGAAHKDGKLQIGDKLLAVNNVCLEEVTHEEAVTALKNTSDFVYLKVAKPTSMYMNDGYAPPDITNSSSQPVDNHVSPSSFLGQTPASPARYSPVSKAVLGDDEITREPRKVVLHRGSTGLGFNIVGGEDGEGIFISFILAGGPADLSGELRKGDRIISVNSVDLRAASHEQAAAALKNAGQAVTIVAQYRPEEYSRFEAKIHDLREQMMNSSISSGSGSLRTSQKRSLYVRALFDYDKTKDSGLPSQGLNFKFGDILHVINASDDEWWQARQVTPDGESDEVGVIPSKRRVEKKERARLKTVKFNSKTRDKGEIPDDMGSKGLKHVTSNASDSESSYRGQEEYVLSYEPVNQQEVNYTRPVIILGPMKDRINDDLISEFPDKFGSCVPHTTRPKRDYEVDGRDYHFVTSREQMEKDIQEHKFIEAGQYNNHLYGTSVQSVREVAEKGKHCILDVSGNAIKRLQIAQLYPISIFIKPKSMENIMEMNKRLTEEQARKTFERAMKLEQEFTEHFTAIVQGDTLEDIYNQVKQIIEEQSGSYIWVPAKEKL

Asparagine synthetase domain-containing protein 1 (Homo sapiens), Q9NWL6 T641E
effect of a mutation on the interaction (scrib_human SCRIB [1]): disrupting interaction strength

Protein TANC1 (Homo sapiens), Q9C0D5 S1855E
effect of a mutation on the interaction (scrib_human SCRIB [2]): decreasing interaction strength | effect of a mutation on the interaction (dlg1_human DLG1): decreasing interaction strength

Protein scribble homolog (Homo sapiens), Q14160 A743R
effect of a mutation on the interaction (ks6a2_human RPS6KA2 [3]): increasing interaction strength

Protein scribble homolog (Homo sapiens), Q14160 A743R;R762A
effect of a mutation on the interaction (crcm_human MCC [4]): decreasing interaction strength | effect of a mutation on the interaction (crcm_human MCC [5]): with no effect | effect of a mutation on the interaction (ks6a2_human RPS6KA2 [3]): decreasing interaction strength

Protein scribble homolog (Homo sapiens), Q14160 K746A
effect of a mutation on the interaction (ks6a2_human RPS6KA2 [3]): decreasing interaction strength | effect of a mutation on the interaction (ks6a2_human RPS6KA2 [6]): increasing interaction strength

Protein scribble homolog (Homo sapiens), Q14160 R762A
effect of a mutation on the interaction (crcm_human MCC [4]): decreasing interaction strength | effect of a mutation on the interaction (ks6a2_human RPS6KA2 [3]): decreasing interaction strength | effect of a mutation on the interaction (ks6a2_human RPS6KA2 [6]): increasing interaction strength

Protein scribble homolog (Homo sapiens), Q14160 R801A
effect of a mutation on the interaction (ks6a2_human RPS6KA2 [3]): decreasing interaction strength

Wilms tumor protein 1-interacting protein (Homo sapiens), A6NIX2 S422E
effect of a mutation on the interaction (scrib_human SCRIB [7]): with no effect

Source: IntAct's records for PubMed 30126976
